Measurements published in patent publication US10233249B2, “Antibodies and methods for treating estrogen receptor-associated diseases” (BEIJING SHENOGEN PHARMA GROUP LTD., priority 2013, dated 2019).
“Also recorded” adds a separate entry of the source.

Tests used:
[1] = molecular target: T1, membrane bound ER-α36 protein in MCF-7 cells (Homo sapiens, UniProt P03372); assay: Immunofluorescence analysis of MCF-7 mammosphere; format: cell-based
T1 construct: endogenous in cells; host or cells: MCF7
T1 sequence (P03372 1-310 isoform P03372-4): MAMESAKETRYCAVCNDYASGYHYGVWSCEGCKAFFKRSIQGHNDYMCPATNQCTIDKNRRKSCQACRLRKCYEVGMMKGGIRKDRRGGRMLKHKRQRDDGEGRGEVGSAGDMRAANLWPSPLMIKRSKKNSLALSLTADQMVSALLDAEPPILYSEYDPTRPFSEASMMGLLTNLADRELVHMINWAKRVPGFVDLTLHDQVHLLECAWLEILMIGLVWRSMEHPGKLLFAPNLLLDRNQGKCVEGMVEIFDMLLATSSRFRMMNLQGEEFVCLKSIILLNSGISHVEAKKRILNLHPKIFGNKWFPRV
Protocol: The ability of SNGmB1 to detect membrane bound ER-α36 protein in MCF-7 cells was assessed using immunostaining. MCF-7 mammosphere was formed and immunostaining was performed by steps as follows:
1. MCF-7 cells were cultured in DMEM without phenol red for 2 days and stained with 7-aminoactinomycin D (7-AAD) followed by FACS sorting. The sorted cells were cultured in DMEM/F12 without phenol red medium (Gibo) with B27 (Invitrogen), EGF (BD Biosciences) and bFGF (BD Biosciences) for 6 days and the MCF-7 mammosphere was formed. 2. MCF-7 mammosphere was centrifuged at 1000 rpm for 4 min, and the supernatant was removed. 3. The mammosphere was washed with 500 μl PBS and was transferred to a 1.5 ml EP tube before centrifugation at 1000 rpm for 4 min, and the supernatant was discarded. 4. The precipitate was fixed with 500 μl paraformaldehyde (4%) for 20 min (or overnight), and was centrifuged at 1000 rpm for 4 min to move the supernatant. 5. The precipitate was washed with 500 μl PBS and centrifuged at 1000 rpm for 4 min, and the supernatant was discarded, wash three times using PBS. 6. The supernatant was removed and the precipitate was incubated with 50 μl goat serum blocking solution at 37° C. for 30 min; after centrifugation at 1000 rpm for 4 min, the supernatant was discarded. 7. […] The mammospheres was transferred to small observation dish, and stored at 4° C. to be detected.

[2] = molecular target: T2, biotinylated GV27 peptide (ER-α36) (Homo sapiens, UniProt P03372); assay: Competition ELISA; format: binding
T2 sequence (P03372 284-310 isoform P03372-4 limits assumed): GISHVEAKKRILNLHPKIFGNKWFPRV
Protocol: The antigen (biotinylated GV27 peptide) was added along with different amount of the competing mouse antibody, the ELISA plates were then allowed to incubate for equilibrium before wash. Streptavidin-HRP (Sigma, S2438, 1:5000) and TMB substrate (Biopanda, China) were added and OD450 was measured on a plate reader. IgG were tested in parallel as control antibody.

[3] = tested on: BCAP37 breast cancer xenograft; assay: BCAP37 breast cancer xenograft model; format: in vivo; details: NOD-SCID mice, 1.25, 5 and 20 mg/kg SNGmB1, 3 mg/kg Herceptin, 17 days
Protocol: The ability of anti-ER-α36 antibody in inhibiting human tumor cell growth in Xenograft model was assessed using BCAP37 breast cancer model. […] The cells were implanted into NOD-SCID mice. […] After 17 days of treatment, the tumors were excised, and both tumor weight and volume were measured.

B1: SNGmB1: mouse monoclonal anti-ER-α36 antibody (mIgG2b), light chain SEQ ID NO: 16, heavy chain SEQ ID NO: 18 (antibody, listed as Mus musculus)
heavy: QAYLQQSGAELVRPGASVKMSCKASGYTFTSHNMHWIKQTPRQGLEWIGAIHPVNGDTAYNQKFKGKATLTVDKSSSTAYLQLSSLTSEESAVYFCAREGYGSVDYWGQGTTLTVSSAKTTPPSVYPLAPGCGDTTGSSVTLGCLVKGYFPESVTVTWNSGSLSSSVHTFPALLQSGLYTMSSSVTVPSSTWPSQTVTCSVAHPASSTTVDKKLEPSGPISTINPCPPCKECHKCPAPNLEGGPSVFIFPPNIKDVLMISLTPKVTCVVVDVSEDDPDVQISWFVNNVEVHTAQTQTHREDYNSTIRVVSTLPIQHQDWMSGKEFKCKVNNKDLPSPIERTISKIKGLVRAPQVYILPPPAEQLSRKDVSLTCLVVGFNPGDISVEWTSNGHTEENYKDTAPVLDSDGSYFIYSKLNMKTSKWEKTDSFSCNVRHEGLKNYYLKKTISRSPGK
light: ETTVTQSPASLSMTIGEKVTIRCITSTDIDDDMNWYRKKPGQPPKLLISEGNTLRPGVPSRFSSSGYGTDFVFTIENMLSEDVADYYCLQSDNLPLTFGAGTKLELKRADAAPTVSIFPPSSEQLTSGGASVVCFLNNFYPKDINVKWKIDGSERQNGVLNSWTDQDSKDSTYSMSSTLTLTKDEYERHNSYTCEATHKTSTSPIVKSFNRNEC
immunostaining of membrane bound ER-α36 on MCF-7 mammospheres [1]: stained the MCF-7 mammospheres in a dose-dependent manner; also recorded: can detect membrane bound ER-α36 on MCF7 | competition with SNGmB1 antibody for binding to GV27 peptide / ER-α36 [2]: compete against SNGmB1 antibody | inhibition of tumor growth [3]: inhibit tumor growth in a dose-dependent manner; also recorded: inhibited tumor cell growth in a does-dependent manner
